Source: patent US5888732

How the values were obtained:
[1] = test system: Lambda integrase (Int) + IHF; assay: cleavage_in_vitro; details: agarose gel; 50 mM Tris pH 7.8, 70 mM KCl, 5 mM spermidine, 25 C 45 min
[2] = target: Lambda integrase (Int) + excisionase (Xis) + IHF (UniProt P03700+P03699+P0A6X7+P0A6Y1); assay: cell_activity
[3] = target: Cre recombinase (bacteriophage P1) (UniProt P06956); assay: cell_activity; details: 140 without Cre
Sequence of UniProt P06956 (P06956 whole entry): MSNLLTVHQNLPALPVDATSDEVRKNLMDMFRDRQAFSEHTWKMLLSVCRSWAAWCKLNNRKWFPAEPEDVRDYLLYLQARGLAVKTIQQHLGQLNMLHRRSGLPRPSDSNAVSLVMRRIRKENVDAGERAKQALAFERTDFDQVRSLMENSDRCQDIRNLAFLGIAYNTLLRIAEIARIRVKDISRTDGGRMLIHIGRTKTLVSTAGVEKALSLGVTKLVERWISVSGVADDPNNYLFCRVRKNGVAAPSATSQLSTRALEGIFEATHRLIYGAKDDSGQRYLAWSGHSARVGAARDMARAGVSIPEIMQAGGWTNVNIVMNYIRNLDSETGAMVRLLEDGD

Sequence of UniProt P03700 (P03700 whole entry, chain 1 of 4): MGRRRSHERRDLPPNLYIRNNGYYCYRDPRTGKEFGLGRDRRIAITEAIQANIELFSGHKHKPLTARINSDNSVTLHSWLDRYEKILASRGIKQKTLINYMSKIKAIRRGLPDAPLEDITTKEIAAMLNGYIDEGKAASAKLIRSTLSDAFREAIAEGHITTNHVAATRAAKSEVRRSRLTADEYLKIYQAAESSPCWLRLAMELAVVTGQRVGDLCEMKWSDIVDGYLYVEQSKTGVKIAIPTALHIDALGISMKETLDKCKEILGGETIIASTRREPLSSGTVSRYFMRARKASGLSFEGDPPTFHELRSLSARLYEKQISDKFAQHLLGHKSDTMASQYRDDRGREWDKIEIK
Sequence of UniProt P03700 (P03699 whole entry, chain 2 of 4): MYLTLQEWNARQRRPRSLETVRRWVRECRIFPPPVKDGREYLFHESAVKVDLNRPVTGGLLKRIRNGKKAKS
Sequence of UniProt P03700 (P0A6X7 2-99, chain 3 of 4): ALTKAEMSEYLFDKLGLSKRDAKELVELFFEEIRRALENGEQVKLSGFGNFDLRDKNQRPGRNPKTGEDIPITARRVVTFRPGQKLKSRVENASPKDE
Sequence of UniProt P03700 (P0A6Y1 whole entry, chain 4 of 4): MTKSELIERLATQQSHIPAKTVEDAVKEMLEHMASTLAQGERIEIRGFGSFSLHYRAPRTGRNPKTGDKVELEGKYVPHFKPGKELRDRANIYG

Substance: attB wild type (pEZC705) ; attP wild type (pEZC726)
- activity (% of total DNA converted to cointegrate) [1]: 5

Substance: attR1 (pEZC1305) ; attLwt (pEZC1313)
- activity (kanamycin resistant colonies) ([2]; with Cre/loxP, background 1): 4

Substance: attR2 (pEZC1309) ; attLwt (pEZC1313)
- activity (kanamycin resistant colonies) ([2]; with Cre/loxP, background 9): 0

Substance: attRwt (lacking P1 and H1; pEZC1301) ; attL1 (pEZC1317)
- activity (kanamycin resistant colonies) ([2]; with Cre/loxP, background 1): 47

Substance: attRwt (lacking P1 and H1; pEZC1301) ; attL2 (pEZC1321)
- activity (kanamycin resistant colonies) ([2]; with Cre/loxP, background 1): 0

Substance: attRwt (lacking P1 and H1; pEZC1301) ; attLwt (pEZC1313)
- activity (kanamycin resistant colonies) ([2]; in vitro recombination with Cre on loxP as second site, background 1): 147

Substance: loxP 511
- activity (kanamycin resistant colonies) ([3]; same reaction as loxP, both sites required for product): 760

Substance: loxP wild type
- activity (kanamycin resistant colonies) ([3]; pEZC602 x pEZC629 via loxP and loxP 511, 37 C, 33 mM NaCl): 760
